In the supplement of paper PMC10065799, “High-throughput profiling of sequence recognition by tyrosine kinases and SH2 domains using bacterial peptide display” (eLife, 2023) one finds SH2 binding enrichment and phosphorylation enrichment data, which are given here for eight sequences.

The target in one data set is c-Src SH2. As to the kind of experiment: SH2 binding enrichment of the phosphorylated peptide, bacterial display (enrichment ratio); higher = better substrate or ligand; peptides without Tyr show the background.
A further data set has as its target Grb2 SH2 (UniProt P62993). The data set is described as above.
The target in the next data set is SHP2-C SH2. The description is as above.
The next data set deals with MERTK (UniProt Q12866). The experiment in a line: phosphorylation enrichment, bacterial display (enrichment ratio); higher = better substrate or ligand; peptides without Tyr show the background.
The next data set has as its target Hck (UniProt P08631). The description is as above.
For a further data set, the system named is AncSZ. The data set is described as above.
The next data set concerns the target EPHB2 (UniProt P29323). The description is as above.
The subject of the next data set is c-Abl (mouse). The data set is described as above.
Another data set concerns the target Fyn (UniProt P06241). The description is as above.
Another data set has as its system c-Src. The data set is described as above.
The next data set concerns the target Jak2 (UniProt O60674). The description is as above.
The target in a further data set is EPHB1 (UniProt P54762). The data set is described as above.
For another data set, the target named is FGFR3 (UniProt P22607). The data set is described as above.
The next data set addresses FGFR1 (UniProt P11362). Described as above.
Another data set concerns the target Fes (UniProt P07332). Described as above.
The test system of the next data set is Fer (mouse). The description is as above.
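For SH2 binding enrichment of the phosphorylated peptide, bacterial display in this document: peptide library displayed on the E. coli surface as eCPX fusions, selected cells deep-sequenced, score is each peptide's frequency after selection divided by its frequency in the input.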
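For phosphorylation enrichment, bacterial display in this document: 11-residue human phosphosite peptides and single-mutation variants displayed on the E. coli surface, counted by deep sequencing, each peptide's frequency after selection divided by its frequency in the unselected input library; frequency after pTyr selection over input frequency; kinase dosed for 20-30% of maximal phosphorylation in three min.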

Jak2, sequence (O60674 whole entry, looked up): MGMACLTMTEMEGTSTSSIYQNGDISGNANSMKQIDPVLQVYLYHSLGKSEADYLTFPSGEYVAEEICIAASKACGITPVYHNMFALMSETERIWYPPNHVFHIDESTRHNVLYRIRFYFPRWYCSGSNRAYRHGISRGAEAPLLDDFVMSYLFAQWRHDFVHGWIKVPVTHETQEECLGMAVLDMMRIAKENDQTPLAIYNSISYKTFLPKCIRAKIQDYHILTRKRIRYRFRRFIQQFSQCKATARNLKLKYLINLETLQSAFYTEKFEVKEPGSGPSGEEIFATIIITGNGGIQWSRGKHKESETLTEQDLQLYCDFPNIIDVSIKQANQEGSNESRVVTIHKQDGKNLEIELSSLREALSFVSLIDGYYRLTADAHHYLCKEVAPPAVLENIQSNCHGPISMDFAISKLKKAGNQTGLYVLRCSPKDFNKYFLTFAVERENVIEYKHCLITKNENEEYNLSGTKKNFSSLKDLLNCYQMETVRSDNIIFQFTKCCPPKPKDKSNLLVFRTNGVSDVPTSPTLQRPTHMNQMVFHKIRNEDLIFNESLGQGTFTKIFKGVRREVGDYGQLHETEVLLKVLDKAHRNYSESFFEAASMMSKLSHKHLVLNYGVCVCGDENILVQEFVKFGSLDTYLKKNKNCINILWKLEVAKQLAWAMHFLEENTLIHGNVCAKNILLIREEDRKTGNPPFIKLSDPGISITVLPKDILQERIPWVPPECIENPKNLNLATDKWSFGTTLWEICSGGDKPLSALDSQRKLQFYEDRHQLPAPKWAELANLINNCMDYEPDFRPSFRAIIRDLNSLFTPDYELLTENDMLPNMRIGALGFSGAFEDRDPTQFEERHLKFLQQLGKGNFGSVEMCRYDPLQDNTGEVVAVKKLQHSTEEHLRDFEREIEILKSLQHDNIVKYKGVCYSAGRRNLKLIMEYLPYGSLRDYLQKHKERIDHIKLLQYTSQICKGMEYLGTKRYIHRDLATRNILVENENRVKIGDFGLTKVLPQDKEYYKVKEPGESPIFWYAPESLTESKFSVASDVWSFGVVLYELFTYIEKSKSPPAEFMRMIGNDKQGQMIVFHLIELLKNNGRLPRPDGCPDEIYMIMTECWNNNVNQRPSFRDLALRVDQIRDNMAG
FGFR3, sequence (P22607 whole entry, looked up): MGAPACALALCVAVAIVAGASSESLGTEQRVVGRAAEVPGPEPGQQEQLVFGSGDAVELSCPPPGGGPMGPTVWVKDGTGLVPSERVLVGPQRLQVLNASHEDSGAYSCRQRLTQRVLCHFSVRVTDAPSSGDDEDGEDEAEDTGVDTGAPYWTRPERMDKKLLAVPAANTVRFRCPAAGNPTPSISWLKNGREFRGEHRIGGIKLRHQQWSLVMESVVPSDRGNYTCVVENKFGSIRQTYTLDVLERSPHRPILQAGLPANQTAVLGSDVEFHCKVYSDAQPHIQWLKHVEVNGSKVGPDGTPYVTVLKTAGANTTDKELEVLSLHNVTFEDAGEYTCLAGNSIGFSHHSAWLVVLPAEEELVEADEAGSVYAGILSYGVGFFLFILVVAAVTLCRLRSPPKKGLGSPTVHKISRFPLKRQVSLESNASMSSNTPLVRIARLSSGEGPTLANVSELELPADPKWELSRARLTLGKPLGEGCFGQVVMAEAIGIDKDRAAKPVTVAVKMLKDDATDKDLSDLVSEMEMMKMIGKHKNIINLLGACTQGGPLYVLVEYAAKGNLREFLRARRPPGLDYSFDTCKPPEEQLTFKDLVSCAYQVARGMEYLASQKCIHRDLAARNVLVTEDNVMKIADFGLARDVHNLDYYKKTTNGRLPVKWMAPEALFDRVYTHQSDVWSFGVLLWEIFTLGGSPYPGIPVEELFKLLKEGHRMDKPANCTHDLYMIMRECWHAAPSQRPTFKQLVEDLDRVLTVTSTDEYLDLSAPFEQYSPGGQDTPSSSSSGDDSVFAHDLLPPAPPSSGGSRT
MERTK, sequence (Q12866 whole entry, looked up): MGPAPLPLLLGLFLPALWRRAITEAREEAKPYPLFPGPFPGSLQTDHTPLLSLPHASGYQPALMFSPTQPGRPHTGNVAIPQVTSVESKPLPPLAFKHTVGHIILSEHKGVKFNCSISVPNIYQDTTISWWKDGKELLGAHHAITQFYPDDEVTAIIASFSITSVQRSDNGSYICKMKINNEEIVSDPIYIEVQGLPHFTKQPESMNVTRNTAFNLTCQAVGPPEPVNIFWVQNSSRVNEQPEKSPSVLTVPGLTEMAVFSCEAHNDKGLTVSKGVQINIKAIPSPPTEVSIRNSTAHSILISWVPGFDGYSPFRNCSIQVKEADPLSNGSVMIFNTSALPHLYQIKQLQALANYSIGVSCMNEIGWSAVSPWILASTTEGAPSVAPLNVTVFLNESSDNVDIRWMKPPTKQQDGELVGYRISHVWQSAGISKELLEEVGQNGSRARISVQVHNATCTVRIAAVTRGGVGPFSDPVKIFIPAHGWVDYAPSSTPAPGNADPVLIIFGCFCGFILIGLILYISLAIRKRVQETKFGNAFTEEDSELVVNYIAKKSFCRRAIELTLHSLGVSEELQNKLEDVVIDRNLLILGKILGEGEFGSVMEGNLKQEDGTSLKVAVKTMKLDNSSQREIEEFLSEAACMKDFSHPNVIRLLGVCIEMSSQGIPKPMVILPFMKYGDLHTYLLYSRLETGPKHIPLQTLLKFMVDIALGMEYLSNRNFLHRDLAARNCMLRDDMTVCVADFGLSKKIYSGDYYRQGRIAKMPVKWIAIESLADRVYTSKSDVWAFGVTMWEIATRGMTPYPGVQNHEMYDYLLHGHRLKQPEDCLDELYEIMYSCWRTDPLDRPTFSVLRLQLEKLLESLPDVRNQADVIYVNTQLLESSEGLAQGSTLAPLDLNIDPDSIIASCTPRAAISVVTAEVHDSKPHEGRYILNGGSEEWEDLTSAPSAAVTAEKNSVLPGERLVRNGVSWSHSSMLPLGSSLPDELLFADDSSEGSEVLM
Fes, sequence (P07332 whole entry, looked up): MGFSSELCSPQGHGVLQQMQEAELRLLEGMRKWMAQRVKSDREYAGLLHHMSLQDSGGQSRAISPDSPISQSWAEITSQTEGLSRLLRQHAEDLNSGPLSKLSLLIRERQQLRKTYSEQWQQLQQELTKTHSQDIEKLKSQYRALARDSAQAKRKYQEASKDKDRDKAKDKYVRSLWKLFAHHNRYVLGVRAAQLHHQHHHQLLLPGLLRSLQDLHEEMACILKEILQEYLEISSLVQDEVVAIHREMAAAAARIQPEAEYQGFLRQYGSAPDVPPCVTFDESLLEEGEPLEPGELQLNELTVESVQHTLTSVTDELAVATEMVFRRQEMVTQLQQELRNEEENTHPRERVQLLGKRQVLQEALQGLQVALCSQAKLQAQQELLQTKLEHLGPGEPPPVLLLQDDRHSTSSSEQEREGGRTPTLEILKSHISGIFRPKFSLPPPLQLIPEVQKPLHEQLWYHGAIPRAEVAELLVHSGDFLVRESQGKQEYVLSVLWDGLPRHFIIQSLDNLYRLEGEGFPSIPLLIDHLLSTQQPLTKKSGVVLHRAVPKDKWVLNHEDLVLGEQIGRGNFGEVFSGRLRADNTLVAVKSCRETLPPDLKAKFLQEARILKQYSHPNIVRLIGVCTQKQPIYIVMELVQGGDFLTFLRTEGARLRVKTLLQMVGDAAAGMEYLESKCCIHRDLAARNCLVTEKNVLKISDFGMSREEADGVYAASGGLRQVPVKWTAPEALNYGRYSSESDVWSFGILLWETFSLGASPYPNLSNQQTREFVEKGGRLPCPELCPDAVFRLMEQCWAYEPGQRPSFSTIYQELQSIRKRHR
EPHB2, sequence (P29323 whole entry, looked up): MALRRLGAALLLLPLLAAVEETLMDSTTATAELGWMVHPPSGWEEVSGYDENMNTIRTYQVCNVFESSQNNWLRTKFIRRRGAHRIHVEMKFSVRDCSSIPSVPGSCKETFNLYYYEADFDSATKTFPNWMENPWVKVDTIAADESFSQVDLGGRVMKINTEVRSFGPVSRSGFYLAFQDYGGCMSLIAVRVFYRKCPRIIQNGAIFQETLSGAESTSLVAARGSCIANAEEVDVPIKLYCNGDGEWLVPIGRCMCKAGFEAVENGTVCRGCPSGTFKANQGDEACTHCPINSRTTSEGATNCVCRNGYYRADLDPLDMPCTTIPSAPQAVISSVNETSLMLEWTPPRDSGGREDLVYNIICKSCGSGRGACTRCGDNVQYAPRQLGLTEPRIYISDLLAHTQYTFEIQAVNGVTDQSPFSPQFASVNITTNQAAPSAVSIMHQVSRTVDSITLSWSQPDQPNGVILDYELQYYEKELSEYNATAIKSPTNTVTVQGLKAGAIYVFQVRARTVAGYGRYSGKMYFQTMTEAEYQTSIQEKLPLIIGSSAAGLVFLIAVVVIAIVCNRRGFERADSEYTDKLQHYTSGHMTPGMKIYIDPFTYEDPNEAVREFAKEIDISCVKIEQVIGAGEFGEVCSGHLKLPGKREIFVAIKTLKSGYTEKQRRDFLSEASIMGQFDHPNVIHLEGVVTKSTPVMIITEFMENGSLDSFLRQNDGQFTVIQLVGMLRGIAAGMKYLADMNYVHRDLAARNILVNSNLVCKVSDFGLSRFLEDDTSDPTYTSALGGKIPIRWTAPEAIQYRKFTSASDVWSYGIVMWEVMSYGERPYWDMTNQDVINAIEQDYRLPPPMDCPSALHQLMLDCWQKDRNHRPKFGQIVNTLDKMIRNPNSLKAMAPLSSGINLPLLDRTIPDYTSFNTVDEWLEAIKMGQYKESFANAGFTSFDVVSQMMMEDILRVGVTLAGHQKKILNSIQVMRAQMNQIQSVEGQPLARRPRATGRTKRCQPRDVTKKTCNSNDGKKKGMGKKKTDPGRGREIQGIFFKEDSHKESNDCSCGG
Grb2 SH2, sequence (P62993 whole entry, looked up): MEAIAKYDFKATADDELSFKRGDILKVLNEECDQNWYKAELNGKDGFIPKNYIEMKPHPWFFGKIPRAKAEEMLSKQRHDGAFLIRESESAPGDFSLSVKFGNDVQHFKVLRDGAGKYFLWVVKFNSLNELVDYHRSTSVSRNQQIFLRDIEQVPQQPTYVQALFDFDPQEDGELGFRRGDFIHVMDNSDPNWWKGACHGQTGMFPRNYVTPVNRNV

For MNLLGYRHVRS [CHST4_Y359], the results for the SH2 binding enrichment with c-Src SH2, with Grb2 SH2 and with SHP2-C SH2 were 0.545, 0.855 and 0.748, respectively. In addition, the phosphorylation enrichment with MERTK turned out to be 0.4; with Hck, 0.488; in the data set with AncSZ, 0.761; with EPHB2, 0.461; in the data set with c-Abl (mouse), 0.663; with Fyn it was 0.403. In addition, the phosphorylation enrichment in the data set on c-Src turned out to be 0.405; in the data set with Jak2 it was 0.691; with EPHB1 it was 0.423; with FGFR3, 0.466; with FGFR1, 0.612; with Fes, 0.738. Besides, the phosphorylation enrichment in the data set on Fer (mouse) is 0.409.

Consider VGTTAYVAPEA [IRAK4_Y354_M355V], for which the SH2 binding enrichment with c-Src SH2 is 0.605; with Grb2 SH2 it was 0.938; with SHP2-C SH2 it was 0.76. For the same sequence, the phosphorylation enrichment with MERTK came out at 0.427; in the data set with Hck, 0.41; in the data set with AncSZ, 0.888; with EPHB2, 0.445; with c-Abl (mouse), 0.653; with Fyn, 0.392. Besides, the phosphorylation enrichment with c-Src turned out to be 0.433; in the data set with Jak2 it was 0.79; with EPHB1 it was 0.558; with FGFR3 it was 0.507; with FGFR1, 0.412; with Fes, 0.911. Also, in the data set with Fer (mouse), the phosphorylation enrichment turned out to be 0.424.

On to KNILCYIQGGS [HYDIN_Y4610], for which the SH2 binding enrichment with c-Src SH2 stood at 0.328; with Grb2 SH2, 0.617; in the data set with SHP2-C SH2 it was 0.598. For the same sequence, the phosphorylation enrichment was determined as 0.458 with MERTK; 0.594 with Hck; 1.13 in the data set on AncSZ; 0.748 in the data set with EPHB2; 0.977 in the data set with c-Abl (mouse); 0.436 in the data set with Fyn. In addition, the phosphorylation enrichment with c-Src turned out to be 0.504; with Jak2 it was 1.27; with EPHB1, 0.711; with FGFR3, 0.761; in the data set with FGFR1 it was 0.585; with Fes, 1.43. Besides, the phosphorylation enrichment in the data set on Fer (mouse) was found to be 0.522.

Take CTTIHYNYMGN [TP53_Y234_C238G]: the values for the SH2 binding enrichment in the data set with c-Src SH2, in the data set with Grb2 SH2 and with SHP2-C SH2 were 1.3, 0.926 and 0.842, respectively. The phosphorylation enrichment with MERTK turned out to be 0.633; in the data set with Hck it was 0.462; in the data set with AncSZ it was 0.915; with EPHB2, 0.62; in the data set on c-Abl (mouse) it was 0.657; in the data set with Fyn, 0.402. For the same sequence, the phosphorylation enrichment is 0.425 in the data set on c-Src; 0.865 in the data set with Jak2; 0.85 in the data set with EPHB1; 0.653 in the data set with FGFR3; 0.532 in the data set with FGFR1; 0.987 with Fes. Moreover, the phosphorylation enrichment with Fer (mouse) came to 0.763.

With FADTAYNYRHG [PAH_Y166_I164T], the SH2 binding enrichment amounted to 0.421 with c-Src SH2, 0.723 with Grb2 SH2 and 0.973 in the data set with SHP2-C SH2. Also, the phosphorylation enrichment with MERTK was 0.35; with Hck it was 0.514; in the data set with AncSZ it was 0.672; in the data set with EPHB2, 0.362; with c-Abl (mouse), 0.46; in the data set with Fyn, 0.456. Moreover, the phosphorylation enrichment in the data set on c-Src amounted to 0.449; with Jak2, 0.509; with EPHB1, 0.533; with FGFR3, 0.601; in the data set with FGFR1 it was 0.899; with Fes, 0.831. For the same sequence, the phosphorylation enrichment in the data set with Fer (mouse) came out at 0.552.

On to GAALAYGLDKS [HSPA9_Y230_A225G], for which the SH2 binding enrichment with c-Src SH2 was found to be 0.488; with Grb2 SH2, 0.786; with SHP2-C SH2, 0.696. Moreover, the phosphorylation enrichment was 0.306 with MERTK; 0.402 with Hck; 0.529 in the data set on AncSZ; 0.515 with EPHB2; 0.487 in the data set on c-Abl (mouse); 0.483 in the data set with Fyn. Also, the phosphorylation enrichment in the data set on c-Src was determined as 0.415; with Jak2, 0.493; in the data set with EPHB1, 0.337; with FGFR3, 0.474; with FGFR1 it was 0.389; with Fes, 0.637. The phosphorylation enrichment in the data set on Fer (mouse) was 0.411.

As for SVTYTYSPALN [TP53_Y126_C124Y], the SH2 binding enrichment came to 0.453 in the data set with c-Src SH2, 0.76 with Grb2 SH2 and 0.717 with SHP2-C SH2. The phosphorylation enrichment with MERTK amounted to 2.79; with Hck, 1.17; in the data set with AncSZ, 1.5; in the data set with EPHB2 it was 0.87; with c-Abl (mouse), 1.78; with Fyn, 0.967. The phosphorylation enrichment in the data set on c-Src was 0.998; in the data set with Jak2, 0.997; with EPHB1, 0.95; in the data set with FGFR3 it was 1.34; with FGFR1, 1.24; with Fes, 1.16. For the same sequence, in the data set with Fer (mouse), the phosphorylation enrichment stood at 0.621.

As to GGGFGYQKTKK [DDX18_Y643], the SH2 binding enrichment with c-Src SH2 was found to be 0.712; in the data set with Grb2 SH2 it was 1.05; with SHP2-C SH2, 0.808. The phosphorylation enrichment turned out to be 0.308 with MERTK; 0.379 with Hck; 0.328 in the data set on AncSZ; 0.318 in the data set with EPHB2; 0.556 in the data set on c-Abl (mouse); 0.315 with Fyn. Besides, the phosphorylation enrichment in the data set with c-Src turned out to be 0.3; in the data set with Jak2, 0.814; with EPHB1 it was 0.252; with FGFR3, 0.422; with FGFR1, 0.371; in the data set with Fes, 0.52. Moreover, the phosphorylation enrichment in the data set with Fer (mouse) turned out to be 0.343.
